Results on one protein are retold here after FireProtDB (doi:10.1002/prot.340090203).

For the data set the following is noted: Escherichia coli (strain K12), reversible: yes, whole UniProt chain shown; for unfolding free energy: pH 7, 25 °C, GdnHCl, CD, Potassium phosphate 10 mM.
Setting [1] is: pH 9, Thermal, DSC, Sodium tetraborate 1 mM.

B1: Tryptophan synthase alpha chain wild type, P0A877 (protein)
chain: MERYESLFAQLKERKEGAFVPFVTLGDPGIEQSLKIIDTLIEAGADALELGIPFSDPLADGPTIQNATLRAFAAGVTPAQCFEMLALIRQKHPTIPIGLLMYANLVFNKGIDEFYAQCEKVGVDSVLVADVPVEESAPFRQAALRHNVAPIFICPPNADDDLLRQIASYGRGYTYLLSRAGVTGAENRAALPLNHLVAKLKEYNAAPPLQGFGISAPDQVKAAIDAGAAGAISGSAIVKIIEQHINEPEKMLAALKVFVQPMKAATRS
What is called Tm is the temperature at the midpoint of the melting transition. Consider B1, for which the unfolding free energy is 8.8 kcal/mol. Further, for the setting “transition: 3”, the unfolding free energy is 4.6 kcal/mol. For the same protein, under setting [1], the midpoint of thermal melting (Tm) amounted to 54.1 °C, the “heat capacity change of unfolding” value was 4.6 kcal/mol/K and the “unfolding enthalpy (calorimetric)” value came to 120 kcal/mol.
